Experimental data reported in patent publication US20080131423A1 (US Dept. of Health and Human Services, published 2008).

T1: human TREM-like transcript-1 (TLT-1) (human, UniProt Q86YW5 16-311)
T1 construct: whole, on cells; bands of 35 and 25 kDa; also called hTLT-1; TLT-1 on (HEK)293T transfected cells
T1 sequence (looked up): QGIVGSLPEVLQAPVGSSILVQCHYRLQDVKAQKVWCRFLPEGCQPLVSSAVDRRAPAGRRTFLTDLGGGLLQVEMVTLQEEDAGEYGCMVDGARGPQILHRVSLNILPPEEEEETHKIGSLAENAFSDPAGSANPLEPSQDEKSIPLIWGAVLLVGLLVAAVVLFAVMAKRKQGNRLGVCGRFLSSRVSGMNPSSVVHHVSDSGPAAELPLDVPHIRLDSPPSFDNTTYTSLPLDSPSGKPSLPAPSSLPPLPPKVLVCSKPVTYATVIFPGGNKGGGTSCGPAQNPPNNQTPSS


How the values were obtained:
BSA = BSA (UniProt P02769 25-607); assay: phage ELISA, immobilized antigen (data not shown)
[1] = target: T1, human TREM-like transcript-1 (TLT-1); assay: flow cytometry, purified scFv on TLT-1 transfected cells
Description: For flow cytometric analysis with TLT-1-transfected cells, phage-containing supernatants were prepared from individual colonies as previously described (14). (HEK)293T-TLT-1 transfected cells (2×10⁵ cells) were washed with PBS/1% BSA and incubated with phages (2×10¹⁰ TU) or purified scFv (1 μg/ml). After 1 hr of incubation at 4° C., cells were washed twice with PBS/1% BSA. Phage binding was detected by incubation with mouse anti-M13 monoclonal antibody (Amersham Bioscience, Piscataway, N.J.), followed by incubation with phycoerithrin (PE)-conjugated anti-mouse antibody (Jackson Immunoresearch, West Grove, Pa.). To analyze scFv binding to human platelets, platelets were incubated with 1 μg of purified scFv for 1 hour at 4° C. and washed three times with PBS containing 0.5% sodium azide and 0.5% BSA. ScFv binding was detected using a FITC-conjugated anti-c-myc antibody (Sigma, St Louis, Mo.). TLT-1 expression was detected with a commercial anti-human TLT-1 pAb (R&D Systems, MN) as previously described (10).

Chain of BSA (P02769 25-607 limits assumed): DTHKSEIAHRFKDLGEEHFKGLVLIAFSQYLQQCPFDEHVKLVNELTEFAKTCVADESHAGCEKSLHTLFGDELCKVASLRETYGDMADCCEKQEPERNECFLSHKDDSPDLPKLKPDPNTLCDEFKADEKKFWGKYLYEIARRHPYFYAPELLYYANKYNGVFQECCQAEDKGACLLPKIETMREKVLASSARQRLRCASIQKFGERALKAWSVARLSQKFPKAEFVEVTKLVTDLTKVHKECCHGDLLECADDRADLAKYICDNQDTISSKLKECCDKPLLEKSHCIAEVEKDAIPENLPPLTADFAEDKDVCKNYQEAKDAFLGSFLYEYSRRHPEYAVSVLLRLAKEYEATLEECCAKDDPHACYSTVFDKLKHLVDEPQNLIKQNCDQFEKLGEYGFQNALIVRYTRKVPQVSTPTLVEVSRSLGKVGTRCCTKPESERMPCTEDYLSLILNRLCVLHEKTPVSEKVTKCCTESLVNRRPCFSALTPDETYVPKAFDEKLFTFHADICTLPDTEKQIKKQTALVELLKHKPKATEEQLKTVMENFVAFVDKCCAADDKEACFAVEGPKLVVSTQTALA

Row | Binder | binding result (BSA) | binding result [1]
1 | scFv A1 (scFv, Human scFv from the Tomlinson I phage library; Soluble form purified on Protein L; also called GenBank DQ375449) scFv: MAEVQLLESGGGLVQPGGSLRLSCAASGFTFSSYAMSWVRQAPGKGLEWVSGIGTTGYATAYADSVKGRFTISRDNSKNTLYLQMNSLRAEDTAVYYCAKGNSGFDYWGQGTLVTVSSGGGGSGGGGSGGGGSTDIQMTQSPSSLSASVGDRVTITCRASQSISSYLNWYQQKPGKAPKLLIYTASTLQSGVPSRFSGSGSGTDFTLTISSLQPEDFATYYCQQSSTDPGTFGQGTKVEIKRAAAHHHHHHGAAEQKLISEEDLNGAA | no binding | binds
2 | scFv D1 (scFv, Human scFv from the Tomlinson I phage library; Soluble form purified on Protein L; also called GenBank DQ375454) scFv: MAEVQLLESGGGLVQPGGSLRLSCAASGFTFSSYAMSWVRQAPGKGLEWVSAIGTTGYATAYADSVKGRFTISRDNSKNTLYLQMNSLRAEDTAVYYCAKANSYFDYWGQGTLVTVSSGGGGSGGGGSGGGGSTDIQMTQSPSSLSASVGDRVTITCRASQSISSYLNWYQQKPGKAPKLLIYSASTLQSGVPSRFSGSGSGTDFTLTISSLQPEDFATYYCQQDSTSPDTFGQGTKVEIKRAAAHHHHHHGAAEQKLISEEDLNGAA | no binding | binds
3 | scFv A8 (scFv, Human scFv from the Tomlinson I phage library; Soluble form purified on Protein L; also called GenBank DQ375451) scFv: MAEVQLLESGGGLVQPGGSLRLSCAASGFTFSSYAMSWVRQAPGKGLEWVSGIGTTGYSTAYADSVKGRFTISRDNSKNTLYLQMNSLRAEDTAVYYCAKTAYTFDYWGQGTLVTVSSGGGGSGGGGSGGGGSTDIQMTQSPSSLSASVGDRVTITCRASQSISSYLNWYQQKPGKAPKLLIYSASTLQSGVPSRFSGSGSGTDFTLTISSLQPEDFATYYCQQNSTYPATFGQGTKVEIKRAAAHHHHHHGAAEQKLISEEDLNGAA | no binding | binds
4 | scFv C10 (scFv, Human scFv from the Tomlinson I phage library; Soluble form made in E. coli HB2151 and purified on Protein L (28 kDa); also called clone C10) scFv: MAEVQLLESGGGLVQPGGSLRLSCAASGFTFSSYAMSWVRQAPGKGLEWVSGISSTGGATTYADSVKGRFTISRDNSKNTLYLQMNSLRAEDTAVYYCAKSTYDFDYWGQGTLVTVSSGGGGSGGGGSGGGGSTDIQMTQSPSSLSASVGDRVTITCRASQSISSYLNWYQQKPGKAPKLLIYGASTLQSGVPSRFSGSGSGTDFTLTISSLQPEDFATYYCQQNADAPTTFGQGTKVEIKRAAAHHHHHHGAAEQKLISEEDLNGAA | no binding | 
5 | scFv B8 (scFv, Human scFv from the Tomlinson I phage library; Soluble form purified on Protein L; also called GenBank DQ375452) scFv: MAEVQLLESGGGLVQPGGSLRLSCAASGFTFSSYAMSWVRQAPGKGLEWVSNITASGYATAYADSVKGRFTISRDNSKNTLYLQMNSLRAEDTAVYYCAKTTATFDYWGQGTLVTVSSGGGGSGGGGSGGGGSTDIQMTQSPSSLSASVGDRVTITCRASQSISSYLNWYQQKPGKAPKLLIYDASNLQSGVPSRFSGSGSGTDFTLTISSLQPEDFATYYCQQDTASPSTFGQGTKVEIKRAAAHHHHHHGAAEQKLISEEDLNGAA | no binding | 
6 | scFv A7 (scFv, Human scFv from the Tomlinson I phage library; Soluble form purified on Protein L; also called GenBank DQ375450) scFv: MAEVQLLESGGGLVQPGGSLRLSCAASGFTFSSYAMSWVRQAPGKGLEWVSAIGSYGSATAYADSVKGRFTISRDNSKNTLYLQMNSLRAEDTAVYYCAKNGYDFDYWGQGTLVTVSSGGGGSGGGGSGGGGSTDIQMTQSPSSLSASVGDRVTITCRASQSISSYLNWYQQKPGKAPKLLIYNASGLQSGVPSRFSGSGSGTDFTLTISSLQPEDFATYYCQQSAANPSTFGQGTKVEIKRAAAHHHHHHGAAEQKLISEEDLNGAA | no binding | binds
